Numbered stars: 1 amine (or outer) side, 2 acyl side, 3 side chain; on linkers, the order of the positions; unused ones are H or OH. Bridge positions count the residues as written; N and C are the ends. Side chains are listed from the residue outwards. Ends that are not written are not given here. * marks the point of attachment. C20 diacid = O=C(O)CCCCCCCCCCCCCCCCCCC(=O)*; γGlu = O=C(O)[C@H](CCC(=O)[*:2])N[*:1]; AEEA = NCCOCCOCC(=O)O
B1: N^ε1-[2-[2-[2-[[2-[2-[2-[[(4S)-4-carboxy-4-(19-carboxynonadecanoylamino)butanoyl]amino]ethoxy]ethoxy]acetyl]amino]ethoxy]ethoxy]acetyl]-[Arg17,Pro21,Pro27,Arg34 … (peptide)
peptide: K([AEEA-AEEA-γGlu-C20 diacid])CNTATCATQRLANFLRHSSPNFGAIPSSTNVGRNTY-NH2
modifications: disulfide 2-7; N-terminus assumed
SMILES: CC[C@H](C)[C@H](NC(=O)[C@H](C)NC(=O)CNC(=O)[C@H](Cc1ccccc1)NC(=O)[C@H](CC(N)=O)NC(=O)[C@@H]1CCCN1C(=O)[C@H](CO)NC(=O)[C@H](CO)NC(=O)[C@H](Cc1c[nH]cn1)NC(=O)[C@H](CCCNC(=N)N)NC(=O)[C@H](CC(C)C)NC(=O)[C@H](Cc1ccccc1)NC(=O)[C@H](CC(N)=O)NC(=O)[C@H](C)NC(=O)[C@H](CC(C)C)NC(=O)[C@H](CCCNC(=N)N)NC(=O)[C@H](CCC(N)=O)NC(=O)[C@@H](NC(=O)[C@H](C)NC(=O)[C@@H]1CSSC[C@H](NC(=O)[C@@H](N)CCCCNC(=O)COCCOCCNC(=O)COCCOCCNC(=O)CC[C@H](NC(=O)CCCCCCCCCCCCCCCCCCC(=O)O)C(=O)O)C(=O)N[C@@H](CC(N)=O)C(=O)N[C@@H]([C@@H](C)O)C(=O)N[C@@H](C)C(=O)N[C@@H]([C@@H](C)O)C(=O)N1)[C@@H](C)O)C(=O)N1CCC[C@H]1C(=O)N[C@@H](CO)C(=O)N[C@@H](CO)C(=O)N[C@H](C(=O)N[C@@H](CC(N)=O)C(=O)N[C@H](C(=O)NCC(=O)N[C@@H](CCCNC(=N)N)C(=O)N[C@@H](CC(N)=O)C(=O)N[C@H](C(=O)N[C@@H](Cc1ccc(O)cc1)C(N)=O)[C@@H](C)O)C(C)C)[C@@H](C)O
notes: also called compound 95
B2: N^ε1-[2-[2-[2-[[2-[2-[2-[[(4S)-4-carboxy-4-(19-carboxynonadecanoylamino)butanoyl]amino]ethoxy]ethoxy]acetyl]amino]ethoxy]ethoxy]acetyl]-[Arg17,Pro21,Pro27,His34 … (peptide)
peptide: K([AEEA-AEEA-γGlu-C20 diacid])CNTATCATQRLANFLRHSSPNFGAIPSSTNVGHNTY-NH2
modifications: disulfide 2-7; N-terminus assumed
SMILES: CC[C@H](C)[C@H](NC(=O)[C@H](C)NC(=O)CNC(=O)[C@H](Cc1ccccc1)NC(=O)[C@H](CC(N)=O)NC(=O)[C@@H]1CCCN1C(=O)[C@H](CO)NC(=O)[C@H](CO)NC(=O)[C@H](Cc1c[nH]cn1)NC(=O)[C@H](CCCNC(=N)N)NC(=O)[C@H](CC(C)C)NC(=O)[C@H](Cc1ccccc1)NC(=O)[C@H](CC(N)=O)NC(=O)[C@H](C)NC(=O)[C@H](CC(C)C)NC(=O)[C@H](CCCNC(=N)N)NC(=O)[C@H](CCC(N)=O)NC(=O)[C@@H](NC(=O)[C@H](C)NC(=O)[C@@H]1CSSC[C@H](NC(=O)[C@@H](N)CCCCNC(=O)COCCOCCNC(=O)COCCOCCNC(=O)CC[C@H](NC(=O)CCCCCCCCCCCCCCCCCCC(=O)O)C(=O)O)C(=O)N[C@@H](CC(N)=O)C(=O)N[C@@H]([C@@H](C)O)C(=O)N[C@@H](C)C(=O)N[C@@H]([C@@H](C)O)C(=O)N1)[C@@H](C)O)C(=O)N1CCC[C@H]1C(=O)N[C@@H](CO)C(=O)N[C@@H](CO)C(=O)N[C@H](C(=O)N[C@@H](CC(N)=O)C(=O)N[C@H](C(=O)NCC(=O)N[C@@H](Cc1c[nH]cn1)C(=O)N[C@@H](CC(N)=O)C(=O)N[C@H](C(=O)N[C@@H](Cc1ccc(O)cc1)C(N)=O)[C@@H](C)O)C(C)C)[C@@H](C)O
notes: also called compound 97
B3: N^ε1-[2-[2-[2-[[2-[2-[2-[[(4S)-4-carboxy-4-(19-carboxynonadecanoylamino)butanoyl]amino]ethoxy]ethoxy]acetyl]amino]ethoxy]ethoxy]acetyl]-[Arg17,Pro21,Pro27,Pro31 … (peptide)
peptide: K([AEEA-AEEA-γGlu-C20 diacid])CNTATCATQRLANFLRHSSPNFGAIPSSTPVGSNTY-NH2
modifications: disulfide 2-7; N-terminus assumed
SMILES: CC[C@H](C)[C@H](NC(=O)[C@H](C)NC(=O)CNC(=O)[C@H](Cc1ccccc1)NC(=O)[C@H](CC(N)=O)NC(=O)[C@@H]1CCCN1C(=O)[C@H](CO)NC(=O)[C@H](CO)NC(=O)[C@H](Cc1c[nH]cn1)NC(=O)[C@H](CCCNC(=N)N)NC(=O)[C@H](CC(C)C)NC(=O)[C@H](Cc1ccccc1)NC(=O)[C@H](CC(N)=O)NC(=O)[C@H](C)NC(=O)[C@H](CC(C)C)NC(=O)[C@H](CCCNC(=N)N)NC(=O)[C@H](CCC(N)=O)NC(=O)[C@@H](NC(=O)[C@H](C)NC(=O)[C@@H]1CSSC[C@H](NC(=O)[C@@H](N)CCCCNC(=O)COCCOCCNC(=O)COCCOCCNC(=O)CC[C@H](NC(=O)CCCCCCCCCCCCCCCCCCC(=O)O)C(=O)O)C(=O)N[C@@H](CC(N)=O)C(=O)N[C@@H]([C@@H](C)O)C(=O)N[C@@H](C)C(=O)N[C@@H]([C@@H](C)O)C(=O)N1)[C@@H](C)O)C(=O)N1CCC[C@H]1C(=O)N[C@@H](CO)C(=O)N[C@@H](CO)C(=O)N[C@H](C(=O)N1CCC[C@H]1C(=O)N[C@H](C(=O)NCC(=O)N[C@@H](CO)C(=O)N[C@@H](CC(N)=O)C(=O)N[C@H](C(=O)N[C@@H](Cc1ccc(O)cc1)C(N)=O)[C@@H](C)O)C(C)C)[C@@H](C)O
notes: also called compound 96
B4: N^ε1-[2-[2-[2-[[2-[2-[2-[[(4S)-4-carboxy-4-(19-carboxynonadecanoylamino)butanoyl]amino]ethoxy]ethoxy]acetyl]amino]ethoxy]ethoxy]acetyl]-[Arg17,Pro21,Pro27,Pro34 … (peptide)
peptide: K([AEEA-AEEA-γGlu-C20 diacid])CNTATCATQRLANFLRHSSPNFGAIPSSTNVGPNTY-NH2
modifications: disulfide 2-7; N-terminus assumed
SMILES: CC[C@H](C)[C@H](NC(=O)[C@H](C)NC(=O)CNC(=O)[C@H](Cc1ccccc1)NC(=O)[C@H](CC(N)=O)NC(=O)[C@@H]1CCCN1C(=O)[C@H](CO)NC(=O)[C@H](CO)NC(=O)[C@H](Cc1c[nH]cn1)NC(=O)[C@H](CCCNC(=N)N)NC(=O)[C@H](CC(C)C)NC(=O)[C@H](Cc1ccccc1)NC(=O)[C@H](CC(N)=O)NC(=O)[C@H](C)NC(=O)[C@H](CC(C)C)NC(=O)[C@H](CCCNC(=N)N)NC(=O)[C@H](CCC(N)=O)NC(=O)[C@@H](NC(=O)[C@H](C)NC(=O)[C@@H]1CSSC[C@H](NC(=O)[C@@H](N)CCCCNC(=O)COCCOCCNC(=O)COCCOCCNC(=O)CC[C@H](NC(=O)CCCCCCCCCCCCCCCCCCC(=O)O)C(=O)O)C(=O)N[C@@H](CC(N)=O)C(=O)N[C@@H]([C@@H](C)O)C(=O)N[C@@H](C)C(=O)N[C@@H]([C@@H](C)O)C(=O)N1)[C@@H](C)O)C(=O)N1CCC[C@H]1C(=O)N[C@@H](CO)C(=O)N[C@@H](CO)C(=O)N[C@H](C(=O)N[C@@H](CC(N)=O)C(=O)N[C@H](C(=O)NCC(=O)N1CCC[C@H]1C(=O)N[C@@H](CC(N)=O)C(=O)N[C@H](C(=O)N[C@@H](Cc1ccc(O)cc1)C(N)=O)[C@@H](C)O)C(C)C)[C@@H](C)O
notes: also called compound 98

How the values were obtained:
[1] = target: T1, human calcitonin receptor (human, UniProt P30988 25-474); assay: IC50 at hCTR divided by IC50 at hAmylin-R (SPA competition assays V and VII)
T1 construct: whole, on cells; Assayed as cell membranes of BHK tk'ts 13 cells stably transfected with the human calcitonin receptor (Assay VII); also called hCTR; hCT
T1 sequence (looked up): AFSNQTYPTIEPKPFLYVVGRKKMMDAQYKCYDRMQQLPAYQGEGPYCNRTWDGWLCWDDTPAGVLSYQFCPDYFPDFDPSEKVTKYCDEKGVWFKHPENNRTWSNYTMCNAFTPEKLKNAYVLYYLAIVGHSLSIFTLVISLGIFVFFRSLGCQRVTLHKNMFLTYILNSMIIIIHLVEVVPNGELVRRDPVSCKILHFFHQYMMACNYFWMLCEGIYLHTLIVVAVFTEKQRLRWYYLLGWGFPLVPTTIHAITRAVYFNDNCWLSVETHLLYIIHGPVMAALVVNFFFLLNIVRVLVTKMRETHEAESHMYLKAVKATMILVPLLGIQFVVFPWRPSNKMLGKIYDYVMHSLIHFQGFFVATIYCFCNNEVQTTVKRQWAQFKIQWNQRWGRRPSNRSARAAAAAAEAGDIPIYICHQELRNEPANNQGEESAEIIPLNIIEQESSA
Protocol: The resulting pellet was resuspended, homogenized and centrifuged (20.000 rpm, 15 min) in a buffer containing 20 mM Na-HEPES and 0.1 mM EDTA (pH 7.4, buffer 2). The resulting pellet was resuspended in buffer 2 and protein concentration was measured (BCA protein Assay, Pierce). The homogenate was kept cold during the whole procedure. The membranes were kept at −80° C. until use. The assay was performed in a 384 well Optiplate (PerkinElmer) in a total volume of 40 ul. Membranes were mixed with SPA beads. Final concentration of membranes 35 ng/μL final and SPA beads was 0.05 mg/well. Test-compounds were dissolved in DMSO and further diluted in assay buffer (50 mM Hepes, pH 7.4, 1 mM CaCl2, 5 mM MgCl₂, 0.1% OA and 0.02% Tween20). […] The final mixture was incubated with shaking at 400 rpm for 120 min at 25° C. prior to centrifugation (1500 rpm, 10 min). Samples were analyzed on TopCounter™ (Packard). The IC₅₀ was calculated using (one site binding competition analysis) GraphPad Prism5 as a measure of receptor affinity.
Membranes were prepared in the following way; the cells were rinsed with PBS and incubated with Versene for approximately 5 min before harvesting. The cells were flushed with PBS and the cell-suspension was centrifuged for 5 min at 1000 rpm. Cells were homogenized (Ultrathurrax) in a buffer containing 20 mM Na-HEPES and 10 mM EDTA (pH 7.4) and centrifuged at 20.000 rpm for 15 min. The resulting pellet was resuspended, homogenized and centrifuged (20.000 rpm, 15 min) in a buffer containing 20 mM Na-HEPES and 0.1 mM EDTA (pH 7.4, buffer 2). The resulting pellet was resuspended in buffer 2 and protein concentration was measured (BCA protein Assay, Pierce). The homogenate was kept cold during the whole procedure. The membranes were kept at −80° C. until use. Assay was performed in a 384 well Optiplate (PerkinElmer) in a total volume of 40 ul. Membranes were mixed with SPA beads.

[2] = target: T1, human calcitonin receptor; assay: SPA competition vs 125I-calcitonin, membranes of BHK cells with human calcitonin receptor (Assay VII)
Protocol: Membranes were prepared in the following way; the cells were rinsed with PBS and incubated with Versene for approximately 5 min before harvesting. The cells were flushed with PBS and the cell-suspension was centrifuged for 5 min at 1000 rpm. Cells were homogenized (Ultrathurrax) in a buffer containing 20 mM Na-HEPES and 10 mM EDTA (pH 7.4) and centrifuged at 20.000 rpm for 15 min. The resulting pellet was resuspended, homogenized and centrifuged (20.000 rpm, 15 min) in a buffer containing 20 mM Na-HEPES and 0.1 mM EDTA (pH 7.4, buffer 2). The resulting pellet was resuspended in buffer 2 and protein concentration was measured (BCA protein Assay, Pierce). The homogenate was kept cold during the whole procedure. The membranes were kept at −80° C. until use. Assay was performed in a 384 well Optiplate (PerkinElmer) in a total volume of 40 ul. Membranes were mixed with SPA beads. Final concentration of membranes 35 ng/μL final and Final concentration of SPA beads was 0.05 mg/well. Test-compounds were dissolved in DMSO and further diluted in assay buffer (50 mM Hepes, pH 7.4, 1 mM CaCl2, 5 mM MgCl₂, 0.1% OA and 0.02% Tween20). […] The final mixture was incubated for 120 min with shaking at 400 rpm at 25° C. prior to centrifugation (1500 rpm, 10 min). Samples were analyzed on TopCounter™ (Packard). The […] was calculated using (one site binding competition analysis) GraphPad Prism5 as a measure of receptor affinity.

Binder | Ratio hCT/hAmylin binding [1] | IC50 [2] [nM]
B1 | 63.4 | 61.3
B2 | 104 | 58.9
B3 | 79.6 | 13.2
B4 | 74.1 | 6.74
